Data from US20210309732A1 (ELIXIRON IMMUNOTHERAPEUTICS HONG KONG, published 2021).

target: T1, recombinant human GM-CSF (human, UniProt P04141 18-144); assay: ELISA on coated rhGM-CSF, UBA relative to 1D2
T1 construct: also called rhGM-CSF; CSF2
Description: Some of the residues in the CDRs are essential for epitope binding affinity and/or specificity. A number of computational methods were developed to detect these functional residues, generally known as ‘specificity-determining resides’ (SDRs). […] Based on the analysis, 7 amino acid residues in VH and 3 amino acid residues in VL were selected as the SDRs. The residues are labeled X₁ to X₁₀ for the ease of reference. The SDRs on VH are: Heavy chain D31 (HD31) (X₁), HK32 (X₂), HK54(X₃), HR100 (X₄), HY102 (X₅), HY103 (X₆) and HQ105 (X₇). The SDRs on VL are Light chain V32 (LV32) (X₈), LP94 (X₉) and LV95 (X₁₀). The SDRs were subsequently mutated by site-directed mutagenesis to other amino acids to generate mutant VH or VL clones. HEK293 cells were co-transfected with a vector encoding a mutant VH paired with a vector encoding a wild type VL or a vector encoding a wild type VH paired with a vector encoding a mutant VL. The antibody clones were harvested from the culture medium. The binding affinity of each antibody clone to human GM-CSF was tested by ELISA. The ELISA was done according to the following procedures. ELISA plate was coated with 50 μl of rhGM-CSF at 1 μg/mL. The plate was washed with 200 μl PBST for three times, followed by blocking with 1% BSA for 1 hour at room temperature. The antibody clones to be tested were diluted at 1:12000. 100 μl of the diluted antibodies were added to the cell at 100 μl/well. The plate was incubated at room temperature for 1 hour. The plate was then washed and incubated with 1:5000 diluted goat-anti-human secondary antibody conjugated with HRP at room temperature for one hour. The ELISA assay was developed with 100 μl developing buffer containing H₂O₂-Amplx Red per well in the dark for 5 min and the fluorescence intensity was read at Ex.530/Em.590 nm, with cutoff at 570 nm. The Unit Binding Activity (UBA) of each sample was calculated as the fluorescence signal/antibody clone dilution factor.

T1 sequence (P04141 18-144 limits assumed): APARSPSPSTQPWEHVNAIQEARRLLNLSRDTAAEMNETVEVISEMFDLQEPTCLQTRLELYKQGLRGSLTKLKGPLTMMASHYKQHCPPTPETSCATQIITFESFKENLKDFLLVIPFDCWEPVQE

Row | Binder | binding affinity % of 1D2 [%]
1 | 1D2 SDR mutant HQ105W (antibody, IgG1, V domains shown, also called X7 W) VH: QVQLVQSGAEVKKPGASVKVSCEASGYTFTDKYLHWVRQAPGQGLEWMAWINPKSGGTFYAQNFKGRVTVTRDTSINTAYLELTSLRLDDTSTYYCARGRDYYDWGAADLWGQGTMVTVSS VL: DIQLTQSPSSLSASVGDRVTITCRASQGINSVLAWYQQKPGKAPKLLLYAASKLESGVPSRFSGSGSGTDYTLTISSLQPEDFGTYYCQQYYSPVRTFGQGTKVEIKR | 68
2 | 1D2 SDR mutant HR100G (antibody, IgG1, V domains shown, also called X4 G) VH: QVQLVQSGAEVKKPGASVKVSCEASGYTFTDKYLHWVRQAPGQGLEWMAWINPKSGGTFYAQNFKGRVTVTRDTSINTAYLELTSLRLDDTSTYYCARGGDYYDQGAADLWGQGTMVTVSS VL: DIQLTQSPSSLSASVGDRVTITCRASQGINSVLAWYQQKPGKAPKLLLYAASKLESGVPSRFSGSGSGTDYTLTISSLQPEDFGTYYCQQYYSPVRTFGQGTKVEIKR | 125
3 | 1D2 SDR mutant HR100A (antibody, IgG1, V domains shown, also called X4 A) VH: QVQLVQSGAEVKKPGASVKVSCEASGYTFTDKYLHWVRQAPGQGLEWMAWINPKSGGTFYAQNFKGRVTVTRDTSINTAYLELTSLRLDDTSTYYCARGADYYDQGAADLWGQGTMVTVSS VL: DIQLTQSPSSLSASVGDRVTITCRASQGINSVLAWYQQKPGKAPKLLLYAASKLESGVPSRFSGSGSGTDYTLTISSLQPEDFGTYYCQQYYSPVRTFGQGTKVEIKR | 76
4 | 1D2 SDR mutant HQ105V (antibody, IgG1, V domains shown, also called X7 V) VH: QVQLVQSGAEVKKPGASVKVSCEASGYTFTDKYLHWVRQAPGQGLEWMAWINPKSGGTFYAQNFKGRVTVTRDTSINTAYLELTSLRLDDTSTYYCARGRDYYDVGAADLWGQGTMVTVSS VL: DIQLTQSPSSLSASVGDRVTITCRASQGINSVLAWYQQKPGKAPKLLLYAASKLESGVPSRFSGSGSGTDYTLTISSLQPEDFGTYYCQQYYSPVRTFGQGTKVEIKR | 155
5 | 1D2 SDR mutant HQ105G (antibody, IgG1, V domains shown, also called X7 G) VH: QVQLVQSGAEVKKPGASVKVSCEASGYTFTDKYLHWVRQAPGQGLEWMAWINPKSGGTFYAQNFKGRVTVTRDTSINTAYLELTSLRLDDTSTYYCARGRDYYDGGAADLWGQGTMVTVSS VL: DIQLTQSPSSLSASVGDRVTITCRASQGINSVLAWYQQKPGKAPKLLLYAASKLESGVPSRFSGSGSGTDYTLTISSLQPEDFGTYYCQQYYSPVRTFGQGTKVEIKR | 105
6 | 1D2 SDR mutant HQ105T (antibody, IgG1, V domains shown, also called X7 T) VH: QVQLVQSGAEVKKPGASVKVSCEASGYTFTDKYLHWVRQAPGQGLEWMAWINPKSGGTFYAQNFKGRVTVTRDTSINTAYLELTSLRLDDTSTYYCARGRDYYDTGAADLWGQGTMVTVSS VL: DIQLTQSPSSLSASVGDRVTITCRASQGINSVLAWYQQKPGKAPKLLLYAASKLESGVPSRFSGSGSGTDYTLTISSLQPEDFGTYYCQQYYSPVRTFGQGTKVEIKR | 133
7 | 1D2 SDR mutant HK54T (antibody, IgG1, V domains shown, also called X3 T) VH: QVQLVQSGAEVKKPGASVKVSCEASGYTFTDKYLHWVRQAPGQGLEWMAWINPTSGGTFYAQNFKGRVTVTRDTSINTAYLELTSLRLDDTSTYYCARGRDYYDQGAADLWGQGTMVTVSS VL: DIQLTQSPSSLSASVGDRVTITCRASQGINSVLAWYQQKPGKAPKLLLYAASKLESGVPSRFSGSGSGTDYTLTISSLQPEDFGTYYCQQYYSPVRTFGQGTKVEIKR | 101
8 | 1D2 SDR mutant HR100E (antibody, IgG1, V domains shown, also called X4 E) VH: QVQLVQSGAEVKKPGASVKVSCEASGYTFTDKYLHWVRQAPGQGLEWMAWINPKSGGTFYAQNFKGRVTVTRDTSINTAYLELTSLRLDDTSTYYCARGEDYYDQGAADLWGQGTMVTVSS VL: DIQLTQSPSSLSASVGDRVTITCRASQGINSVLAWYQQKPGKAPKLLLYAASKLESGVPSRFSGSGSGTDYTLTISSLQPEDFGTYYCQQYYSPVRTFGQGTKVEIKR | 92
9 | 1D2 SDR mutant HK54R (antibody, IgG1, V domains shown, also called X3 R) VH: QVQLVQSGAEVKKPGASVKVSCEASGYTFTDKYLHWVRQAPGQGLEWMAWINPRSGGTFYAQNFKGRVTVTRDTSINTAYLELTSLRLDDTSTYYCARGRDYYDQGAADLWGQGTMVTVSS VL: DIQLTQSPSSLSASVGDRVTITCRASQGINSVLAWYQQKPGKAPKLLLYAASKLESGVPSRFSGSGSGTDYTLTISSLQPEDFGTYYCQQYYSPVRTFGQGTKVEIKR | 98
10 | 1D2 SDR mutant HR100C (antibody, IgG1, V domains shown, also called X4 C) VH: QVQLVQSGAEVKKPGASVKVSCEASGYTFTDKYLHWVRQAPGQGLEWMAWINPKSGGTFYAQNFKGRVTVTRDTSINTAYLELTSLRLDDTSTYYCARGCDYYDQGAADLWGQGTMVTVSS VL: DIQLTQSPSSLSASVGDRVTITCRASQGINSVLAWYQQKPGKAPKLLLYAASKLESGVPSRFSGSGSGTDYTLTISSLQPEDFGTYYCQQYYSPVRTFGQGTKVEIKR | 89

Now from value to binder:

Row | binding affinity % of 1D2 [%] | Binder
11 | 93 | 1D2 SDR mutant HK54Q (antibody, IgG1, V domains shown, also called X3 Q) VH: QVQLVQSGAEVKKPGASVKVSCEASGYTFTDKYLHWVRQAPGQGLEWMAWINPQSGGTFYAQNFKGRVTVTRDTSINTAYLELTSLRLDDTSTYYCARGRDYYDQGAADLWGQGTMVTVSS VL: DIQLTQSPSSLSASVGDRVTITCRASQGINSVLAWYQQKPGKAPKLLLYAASKLESGVPSRFSGSGSGTDYTLTISSLQPEDFGTYYCQQYYSPVRTFGQGTKVEIKR
12 | 173 | 1D2 SDR mutant HQ105E (antibody, IgG1, V domains shown, also called X7 E) VH: QVQLVQSGAEVKKPGASVKVSCEASGYTFTDKYLHWVRQAPGQGLEWMAWINPKSGGTFYAQNFKGRVTVTRDTSINTAYLELTSLRLDDTSTYYCARGRDYYDEGAADLWGQGTMVTVSS VL: DIQLTQSPSSLSASVGDRVTITCRASQGINSVLAWYQQKPGKAPKLLLYAASKLESGVPSRFSGSGSGTDYTLTISSLQPEDFGTYYCQQYYSPVRTFGQGTKVEIKR
13 | 74 | 1D2 SDR mutant HK54V (antibody, IgG1, V domains shown, also called X3 V) VH: QVQLVQSGAEVKKPGASVKVSCEASGYTFTDKYLHWVRQAPGQGLEWMAWINPVSGGTFYAQNFKGRVTVTRDTSINTAYLELTSLRLDDTSTYYCARGRDYYDQGAADLWGQGTMVTVSS VL: DIQLTQSPSSLSASVGDRVTITCRASQGINSVLAWYQQKPGKAPKLLLYAASKLESGVPSRFSGSGSGTDYTLTISSLQPEDFGTYYCQQYYSPVRTFGQGTKVEIKR
14 | 148 | 1D2 SDR mutant HQ105M (antibody, IgG1, V domains shown, also called X7 M) VH: QVQLVQSGAEVKKPGASVKVSCEASGYTFTDKYLHWVRQAPGQGLEWMAWINPKSGGTFYAQNFKGRVTVTRDTSINTAYLELTSLRLDDTSTYYCARGRDYYDMGAADLWGQGTMVTVSS VL: DIQLTQSPSSLSASVGDRVTITCRASQGINSVLAWYQQKPGKAPKLLLYAASKLESGVPSRFSGSGSGTDYTLTISSLQPEDFGTYYCQQYYSPVRTFGQGTKVEIKR
15 | 63 | 1D2 SDR mutant HQ105L (antibody, IgG1, V domains shown, also called X7 L) VH: QVQLVQSGAEVKKPGASVKVSCEASGYTFTDKYLHWVRQAPGQGLEWMAWINPKSGGTFYAQNFKGRVTVTRDTSINTAYLELTSLRLDDTSTYYCARGRDYYDLGAADLWGQGTMVTVSS VL: DIQLTQSPSSLSASVGDRVTITCRASQGINSVLAWYQQKPGKAPKLLLYAASKLESGVPSRFSGSGSGTDYTLTISSLQPEDFGTYYCQQYYSPVRTFGQGTKVEIKR
16 | 82 | 1D2 SDR mutant HK54S (antibody, IgG1, V domains shown, also called X3 S) VH: QVQLVQSGAEVKKPGASVKVSCEASGYTFTDKYLHWVRQAPGQGLEWMAWINPSSGGTFYAQNFKGRVTVTRDTSINTAYLELTSLRLDDTSTYYCARGRDYYDQGAADLWGQGTMVTVSS VL: DIQLTQSPSSLSASVGDRVTITCRASQGINSVLAWYQQKPGKAPKLLLYAASKLESGVPSRFSGSGSGTDYTLTISSLQPEDFGTYYCQQYYSPVRTFGQGTKVEIKR
17 | 88 | 1D2 SDR mutant HK54W (antibody, IgG1, V domains shown, also called X3 W) VH: QVQLVQSGAEVKKPGASVKVSCEASGYTFTDKYLHWVRQAPGQGLEWMAWINPWSGGTFYAQNFKGRVTVTRDTSINTAYLELTSLRLDDTSTYYCARGRDYYDQGAADLWGQGTMVTVSS VL: DIQLTQSPSSLSASVGDRVTITCRASQGINSVLAWYQQKPGKAPKLLLYAASKLESGVPSRFSGSGSGTDYTLTISSLQPEDFGTYYCQQYYSPVRTFGQGTKVEIKR
18 | 134 | 1D2 SDR mutant HQ105S (antibody, IgG1, V domains shown, also called X7 S) VH: QVQLVQSGAEVKKPGASVKVSCEASGYTFTDKYLHWVRQAPGQGLEWMAWINPKSGGTFYAQNFKGRVTVTRDTSINTAYLELTSLRLDDTSTYYCARGRDYYDSGAADLWGQGTMVTVSS VL: DIQLTQSPSSLSASVGDRVTITCRASQGINSVLAWYQQKPGKAPKLLLYAASKLESGVPSRFSGSGSGTDYTLTISSLQPEDFGTYYCQQYYSPVRTFGQGTKVEIKR
